{
  "source": "patent US9657092B2",
  "about": "“S100A4 antibodies and therapeutic uses thereof” (LYKERA BIOMED SA, priority 2010, dated 2017)",
  "key": {"[1]": {"test": "Body weight and adverse side effects in xenograft experiments", "format": "in vivo"}, "Human S100P": {"target": "T1, Human S100P (Homo sapiens, UniProt P25815)", "T1 construct": "made in house", "T1 sequence (P25815 1-95)": "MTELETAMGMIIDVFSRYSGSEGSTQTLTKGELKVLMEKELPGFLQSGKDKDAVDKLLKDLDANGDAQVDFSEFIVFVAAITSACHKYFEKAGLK", "test": "ELISA specificity (reaction pattern of mAb)", "format": "binding", "parameters": "key: ++++ positive reaction; − no reaction"}, "Human S100A4 [2]": {"target": "T2, Human S100A4 (Homo sapiens, UniProt P26447)", "test": "ELISA specificity (reaction pattern of mAb)", "format": "binding", "parameters": "the final full-length recombinant S100A4 protein has an additional Gly-Ser-His at the N-terminus; His tag (pET28a) (N); made in house; host or cells: E. coli Tuner (DE3); key to Reaction Pattern of mAb in ELISA, Human S100A4: ++++ positive reaction; − no reaction"}, "Human S100A4 [3]": {"target": "T2, Human S100A4", "test": "Western-blot of cell and tumor extracts", "format": "binding", "parameters": "Levels of S100A4 expression in total extracts from tumor cell lines of different origins; endogenous in cells; host or cells: human tumour cell lines (MiaPACA-2, Panc1, BxPC3, Colo 205, MDA-MB-231 and others) and xenograft tumours from HCT116, MiaPACA-2, BxPC3", "conditions": "denaturalized protein, reduced conditions", "description": "Cell and tumors samples were rinsed twice with PBS and immediately lysed with ice cold Cell Lysis Buffer (150 mM NaCl, 1% IGEPAL CA630, 5 mM EDTA, 100 μg/mL PMSF, 1 mM Na3VO4, 1 mM NaF and 50 mM Tris pH 7.4). Lysates were cleared by centrifugation and the protein concentration was quantified with the Bradford reagent (Bio-Rad). Total extracts (50 μg) were resolved in a 12% SDS-polyacrilamide gel (PAGE) electrophoresis under reduced conditions and transferred to BioTrace™ PVDF membranes (PALL corporation). Membranes were blocked for 1 hour in TBS plus 0.1% Tween-20 with 5% skimmed dried milk, incubated overnight with the relevant primary antibody and then with the secondary antibodies for 1 hour in blocking buffer, washing three times for 10 min in TBS plus 0.1% Tween-20 after each incubation. Signals were developed using the ECL™ Western Blotting Detection Reagents (Amersham) and exposed to Hyperfilm™ ECL (Amersham)."}, "[4]": {"tested_on": "MiaPACA-2 tumors microvasculature", "test": "Tumor microvasculature quantification by CD31 immunostaining", "format": "in vivo, nude mice", "description": "Tumors from MiaPACA-2 xenograft tumor model were OCT (Tissue-Tek®, Sakura) embedded and frozen. One cryosection (5 μm) corresponding to the central part of each tumor was analyzed. Sections were fixed in acetone/chloroform (1:1) at −20° C. for 5 min, were dried over night at room temperature, washed with PBS and treated for 10 min at 4° C. in a dark chamber with H2O2 (0.03%) in PBS. Then, sections were washed with PBS and blocked for 20 min at 4° C. using PBS-BSA (2%) plus rabbit serum (5%) (Vector) and with Avidin-biotin blocking solution (Dako) for 10 min each one at 4° C. Samples were incubated for 1 hour at room temperature with primary antibody; a monoclonal rat anti-mouse antibody directed against CD31 (dil 1:200, BD PharMingen) diluted in blocking buffer. After incubation sections were incubated with a polyclonal biotinylated anti-rat antibody as secondary antibody (dil 1:500, Vector) for 30 min at room temperature and were incubated with the ABC reagent (Pierce) for 30 min at room temperature. Finally, sections were incubated with NovaRed (Vector) for 20 min at 4° C., stained with hematoxilin Harris (Sigma) for 10 seconds and mounted using DPX non aqueous mounting medium (Sigma).\nAngiogenesis quantification was measured using two criteria:\n8 and 39 pictures per slice, depending on the size of tumours, were taken and analyzed using the NIH ImageJ imaging software.\nComparisons between groups were made using the two-tailed nonparametric Mann Whitney U test. Differences for which P value was less than 0.05 were considered statistically significant.\nThe inventors investigated whether the 5C3 would actually affect tumor angiogenesis in vivo. The evaluation of tumor angiogenesis was made based on the CD31 immunostaining and two analytics approximations: MicroVessel Density (M.V.D.) and the fractional area of vessels (A.A.)."}, "Human S100A6": {"target": "T3, Human S100A6 (Homo sapiens, UniProt P06703)", "T3 construct": "purchased Abnova", "test": "ELISA specificity (reaction pattern of mAb)", "format": "binding", "parameters": "key: ++++ positive reaction; − no reaction"}, "[5]": {"tested_on": "IL-8 release induced by S100A4 in THP-1 monocytes", "test": "IL-8 release in THP-1 monocytes (sandwich ELISA)", "format": "cell-based, human", "description": "Cells of the human monocytic leukemia cell line THP-1 (ATCC) were grown in RPMI 1640 culture medium supplemented with 10% FCS and 1% penicillin/streptomycin, at 37° C. in 5% CO2 in a humidified incubator. Cells were plated at 5.0×10^5 cells/well. […] Anti-mouse IgG (Fc specific) was always added in all the cases for preventing the Fc receptor response. Cell culture supernatants were collected after 24 h and stored at −20° C. The levels of IL-8 were analyzed by sandwich ELISA."}, "[6]": {"conditions": "25 mg/kg i.p. three times a week"}, "[7]": {"conditions": "group G2, MiaPACA-2 tumors, day 30"}, "[8]": {"conditions": "individual animal of G2 (5C3 treatment group), MiaPACA-2 tumor, day 30"}},
  "note": "Several values for one entry are separate records, joined by “and”; a condition that tells them apart may be missing. Equal entries are not always repeated.",
  "data": [
    {"molecule": "5C3: mouse monoclonal anti-S100A4 antibody, IgG1, from hybridoma ECACC 10022401; VL SEQ ID NO: 1, VH SEQ ID NO: 2 (antibody, V domains shown, VH region of the 5C3 monoclonal antibody; VL region of the 5C3 monoclonal antibody) VH: EAQLQQSGAELVKPGASVKLSCTASGFNIQETYMHWVKQRPEQGLEWIGRIDPANGNTKDDPKFQGKASITVDTSSNTAYLQLSSLTSEDTAVYYCASSYAMDYWGQGTSVTVSS VL: DVLMTQTPLSLPVSLGDQASISCRSSQSIVHSNGNTYLEWYLQKTGQSPELLIYKVSNRLSGVPDRFSGSGSGTDFTLKISRVEAEDLGVYYCFQGSHVPFTFGSGTKLEIK", "values": [
      {"measurement": "adverse side effects (motor incoordination, paralysis, ataxia, convulsions, diarrhoea, cachexia, erythema, hypothermia, mortality)", "setting": "[1]; [6]", "value": "did not observe adverse side effects"},
      {"measurement": "body weight loss", "setting": "[1]; [6]", "value": "No body weight loss"},
      {"measurement": "macroscopic analyses of organs", "setting": "[1]; [6]", "value": "did not evidence abnormalities in organs"},
      {"measurement": "tolerability", "setting": "[1]; 25 mg/kg, three times a week up to the end of experiment", "value": "well-tolerated"},
      {"measurement": "Reaction Pattern of mAb in ELISA, Human S100P", "setting": "Human S100P", "value": "−"},
      {"measurement": "Reaction Pattern of mAb in ELISA, Human S100A4", "setting": "Human S100A4 [2]", "value": "++++"},
      {"measurement": "reaction with human S100A4 by ELISA", "setting": "Human S100A4 [2]; purified protein", "value": "reacted"},
      {"measurement": "reaction with human S100A4 in Western-blot", "setting": "Human S100A4 [3]", "value": "react with human S100A4"},
      {"measurement": "reduction in microvessel density compared with control group (vehicle)", "setting": "[4]; MiaPACA-2 tumors", "value": "approximately 40%"},
      {"measurement": "reduction of the section area occupied by vessels compared with control group (vehicle)", "setting": "[4]; MiaPACA-2 tumors", "value": "~30", "unit": "%"},
      {"measurement": "AA (%) Mean", "setting": "[4]; [7]", "value": 0.69, "unit": "%"},
      {"measurement": "AA (%) Median", "setting": "[4]; [7]", "value": 0.59, "unit": "%"},
      {"measurement": "MVD (v.p./mm^2) Mean", "setting": "[4]; [7]", "value": 27.42, "unit": "v.p./mm^2"},
      {"measurement": "MVD (v.p./mm^2) Median", "setting": "[4]; [7]", "value": 26.45, "unit": "v.p./mm^2"},
      {"measurement": "% A.A. (Fractional area of vessels)", "setting": "[4]; [8]", "value": "1.14% and 1.26% and 0.53% (2×) and 0.41% and 0.66% and 0.72% and 0.32%"},
      {"measurement": "M.V.D. (MicroVascular Density)", "setting": "[4]; [8]", "value": "31.55 v.p./mm^2 and 44.37 v.p./mm^2 and 20.23 v.p./mm^2 and 16.81 v.p./mm^2 and 29.84 v.p./mm^2 and 36.23 v.p./mm^2 and 17.31 v.p./mm^2 and 23.05 v.p./mm^2"},
      {"measurement": "No of vessels", "setting": "[4]; [8]", "value": "514 and 460 and 240 and 203 and 440 and 426 and 158 and 174"},
      {"measurement": "Reaction Pattern of mAb in ELISA, Human S100A6", "setting": "Human S100A6", "value": "−"},
      {"measurement": "IL-8 release induced by S100A4", "setting": "[5]; S100A4 3 μM, 24 h", "value": "can be blocked"},
      {"measurement": "IL-8 levels in absence of S100A4", "setting": "[5]; absence of S100A4, data not shown", "value": "no effect"}
    ]}
  ]
}
